Laboratory results published in article PMC3808375, “Reduction of Decoy Receptor 3 Enhances TRAIL-Mediated Apoptosis in Pancreatic Cancer” (PLoS ONE, 2013).
Like-named read-outs stand apart in the source and are kept apart here.

Key:
[1] = biological target: recombinant human DcR3 (decoy receptor 3) (human) (UniProt O95407); test: SPR; Biacore 3000; DcR3 amine-coupled to a CM5 chip; TRAIL 1-2048 nM or LIGHT 1-512 nM flowed at 20 µl/minute; HBS-EP buffer (10 mM HEPES pH 7.4, 150 mM NaCl, 3.4 mM EDTA, 0.005% Surfactant P20); 1:1 binding model, global analysis
[2] = biological target: recombinant human DcR3 (decoy receptor 3) (human) (UniProt O95407); test: as above; remark: listed apart in the source

Chain of recombinant human DcR3 (decoy receptor 3) (human) (O95407 30-300): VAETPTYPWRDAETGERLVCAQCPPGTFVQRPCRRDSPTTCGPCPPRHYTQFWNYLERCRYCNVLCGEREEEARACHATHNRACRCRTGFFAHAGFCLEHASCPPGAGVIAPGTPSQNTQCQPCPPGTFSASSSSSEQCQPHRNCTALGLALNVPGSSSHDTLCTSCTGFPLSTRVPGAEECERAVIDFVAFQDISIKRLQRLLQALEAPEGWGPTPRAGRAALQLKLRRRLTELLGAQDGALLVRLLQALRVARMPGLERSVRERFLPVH

recombinant human TRAIL (TNF-related apoptosis-inducing ligand) (from UniProt P50591 1-281)
Kd [1]: 52.8 nM
koff [1]: 0.00104 s⁻¹
kon [1]: 19400 M⁻¹ s⁻¹
kon [2]: 19700 M⁻¹ s⁻¹
